Holding throughout (format): cell-based, rat
Test [1] deals with proliferating neural progenitor cells. As to the kind of experiment: Immunoblotting of Sox2 and DCX in proliferating neural progenitor cells. The note with it: MANF 20 ng/ml, proliferation condition. The procedure: (§1) Specifically, hippocampal-derived neural stem cells were isolated from the brain of E16 rat embryos. Hippocampal ridges were minced from the embryonic forebrains of E16 rats using sterile fine tweezers under a dissecting microscope. The tissues were collected, mechanically separated using a pipette in Ca^2+/Mg^2+-freeHBSS (Invitrogen) solution, and planted at 19,000 cells/cm^2 in 35 mm culture dishes precoated with 15 µg/ml poly-L-ornithine and 1 µg/ml fibronectin (Sigma). The cells were cultured under the condition of 5% CO2 for 3 days using a serum-free N2 medium (medium for proliferation) supplemented with 10 ng/mL basic fibroblast growth factor(bFGF, Invitrogen). Thereafter, the cells were removed using 0.05% trypsin/EDTA (ethylene-diamine-tetraacetic acid), and neural progenitor cells were planted on a 12 mm glass coverglass (Belco) for immunostaining and on a 100 mm dish for immunoblotting and cultured in N2 medium for proliferation containing bFGF for 1 day. Thereafter, in the proliferation condition, the medium continuously containing bFGF was treated with MANF at the indicated concentration and cultured for 2-3 days; and in the differentiation condition, MANF was added to the medium for differentiation not containing bFGF, which was cultured for 3-7 days. In the control group (vehicle), physiological saline was added in the same volume instead of MANF.
Background: In western blotting, separated proteins are transferred to a membrane and probed.

The test system of test [2] is primary cultured neural progenitor cells. As to the kind of experiment: Immunofluorescence staining of Ki67, Nestin, TuJ1 and NeuN in primary cultured neural progenitor cells. The note with it: MANF 30 ng/ml, compared to the control group. The procedure:
To investigate whether or not MANF promotes proliferation of neural progenitor cells, the primary cultured neural progenitor cells are treated with MANF, and then proliferating cells were fluorescently stained with Ki67 antibody, neural progenitor cells with Nestin antibody, immature nerve cells with TuJ1, and mature neural cells with NeuN antibody.
Specifically, the neural progenitor cells were cultured in the same manner as in Example 1, and after removing all the mediums, they were washed once with PBS. After being fixed for 15 minutes with 4% PFA (paraformaldehyde) in PBS, they were washed twice with PBS again. After washing the cover slip to which the cells were attached with PBST, 0.5% Triton X-100-PBST was added thereto and reacted for 10 minutes. Again, blocking was performed with 2% BSA in PBST or 5% normal serum (Normal donkey serum: Jackson lab, 017-000-121, Normal horse serum: Sigma, H0146); and as primary antibodies, rb-Ki67(Abcam, AB15580, 1:500), mo-NeuN(Millipore, MAB377B, 1:500), mo-Tuj1(Sigma, T8660, 1:3000), mo-Flag(Sigma, F1804, 1:500), and mo-Nestin(Millipore, MAB353, 1:200) were added to 2% BSA in PBS and reacted overnight at 4° C. The next day, they were washed with PBST, and then, as secondary antibodies, mo-Alexa 488(Invitrogen, A21202, 1:700), mo-Cy3(Jackson lab, 715-165-151, 1:500), and rb-Alexa 488(Jackson lab, 711-546-152, 1:700) were added to PBST and reacted at room temperature for 1 hour. Cell nuclei were stained with DAPI (1 µg/mL, Sigma), mounted on slides, scanned with a confocal laser microscope, and photographed. Heo SR et al.(2009) and Han AM t al.(2012) were referred to in the above method.
In the case of cell count confirmation and data analysis, the number of cell nuclei labeled with DAPI and the number of cells stained with each differentiation marker were counted, respectively, and the number of each differentiation marker was expressed as a percentage of the number of cell nuclei. In this case, the number of cells that matched exactly in shape and location and had the shape of a nerve cell was counted. For example, in NeuN cell count measurement, the number of cells with a round shape in a nucleus and overlapping staining with DAPI was counted, and nonspecific signals appearing at the edge of the slide were not included. In data analysis, the control group and the experimental group were compared through one-way analysis of variance (ANOVA). The statistical significance of the data was set as p<0.05.

Test [3] concerns hippocampal-derived neural stem cells. As to the kind of experiment: Immunoblotting of differentiation markers (NeuN, GAD65/67, vGAT) in differentiating neural progenitor cells. As for the experimental part: To determine the optimal dose of MANF to promote the expression of differentiation markers in neural progenitor cells, immunoblotting experiments were performed using NeuN antibody that labels the nuclei of mature neurons, glutamic acid decarboxylase (GAD65/67) and vesicular […] (vGAT) that label GABAergic nerve cells.
as §1
After 3-7 days of differentiation of the cultured neural stem cells, the medium was removed and washed once with PBS (Phosphate-buffered saline). Then, all the cells were lysed using a lysis buffer to which a protease inhibitor was added. The lysate was loaded in a 10% gel in the same volume, then transferred to a PVDF (Polyvinylidene Fluoride) membrane and blocked with 2% BSA in TBST or 5% skim milk in TBST at room temperature for 1 hour. As primary antibodies, rb-GAD65/67 (1:1000), mo-NeuN (1:1000), mo-Vgat (1:700), and mo-actin (1:2000) were used, and the primary antibodies were diluted with 2% BSA in TBST, reacted at 4° C. for 16 hours, and then washed with […]. As secondary antibodies, mo-HRP (1:5000) and rb-HRP (1:5000) were used, and the secondary antibodies were diluted in 2% skim milk in TBST or 2% BSA in TBST, reacted for 1 hour, and then developed on films. As control antibodies, mo-tubulin (Millipore, 05-661, 1:2000) and mo-actin (Santa cruz, SC-47778, 1:2000) were used.

Where [4] appears, read: MANF at 30 ng (tested 10-50 ng/ml), differentiation condition, vs vehicle.

B1: MANF: one of 16 or more growth factors secreted into nerve stem cells by cerebrovascular cells; amino acid sequence of SEQ ID NO: 1 (protein)
chain: MRRMWATQGLAVALALSVLPGSRALRPGDCEVCISYLGRFYQDLKDRDVTFSPATIENELIKFCREARGKENRLCYYIGATDDAATKIINEVSKPLAHHIPVEKICEKLKKKDSQICELKYDKQIDLSTVDLKKLRVKELKKILDDWGETCKGCAEKSDYIRKINELMPKYAPKAASARTDL
modifications: MANF
As to B1, in test [1], the DCX immunoblot entry was “significantly increased” and the Sox2 immunoblot entry is recorded as “significantly increased”. In addition, in test [2], the Ki67-stained proliferating cells result is listed as “significantly increased”; the “immature neural cells (TuJ1)” value was “also increased, but there was no statistical significance”; the “mature neural cells (NeuN)” value is listed as “also increased, but there was no statistical significance”; the “nestin-stained neural progenitor cells” value is reported as “significantly increased”. In test [3] (setting [4]), the “NeuN protein increase (immunoblotting)” value is on record as 1.6 fold, the “amount of GAD65/67 protein increase (immunoblotting)” value is listed as “about 2.5 fold” and the “amount of vGAT protein increase (immunoblotting)” value is listed as “about 2.5 fold”. For the same molecule, the “optimal dose of MANF (NeuN, GAD65/67 and vGAT protein all increased the most)” value in test [3] (tested 10-50 ng/ml) worked out at 30 ng/mL.
